Experimental data: the supplement of paper PMC10065799, “High-throughput profiling of sequence recognition by tyrosine kinases and SH2 domains using bacterial peptide display” (eLife, 2023)

What was measured:
[1] = tested on: AncSZ; assay: phosphorylation enrichment, bacterial display (enrichment ratio); higher = better substrate or ligand; peptides without Tyr show the background
[2] = biological target: EPHB1 (UniProt P54762); assay: as above
[3] = biological target: EPHB2 (UniProt P29323); assay: as above
EPHB2, sequence (P29323 whole entry, looked up): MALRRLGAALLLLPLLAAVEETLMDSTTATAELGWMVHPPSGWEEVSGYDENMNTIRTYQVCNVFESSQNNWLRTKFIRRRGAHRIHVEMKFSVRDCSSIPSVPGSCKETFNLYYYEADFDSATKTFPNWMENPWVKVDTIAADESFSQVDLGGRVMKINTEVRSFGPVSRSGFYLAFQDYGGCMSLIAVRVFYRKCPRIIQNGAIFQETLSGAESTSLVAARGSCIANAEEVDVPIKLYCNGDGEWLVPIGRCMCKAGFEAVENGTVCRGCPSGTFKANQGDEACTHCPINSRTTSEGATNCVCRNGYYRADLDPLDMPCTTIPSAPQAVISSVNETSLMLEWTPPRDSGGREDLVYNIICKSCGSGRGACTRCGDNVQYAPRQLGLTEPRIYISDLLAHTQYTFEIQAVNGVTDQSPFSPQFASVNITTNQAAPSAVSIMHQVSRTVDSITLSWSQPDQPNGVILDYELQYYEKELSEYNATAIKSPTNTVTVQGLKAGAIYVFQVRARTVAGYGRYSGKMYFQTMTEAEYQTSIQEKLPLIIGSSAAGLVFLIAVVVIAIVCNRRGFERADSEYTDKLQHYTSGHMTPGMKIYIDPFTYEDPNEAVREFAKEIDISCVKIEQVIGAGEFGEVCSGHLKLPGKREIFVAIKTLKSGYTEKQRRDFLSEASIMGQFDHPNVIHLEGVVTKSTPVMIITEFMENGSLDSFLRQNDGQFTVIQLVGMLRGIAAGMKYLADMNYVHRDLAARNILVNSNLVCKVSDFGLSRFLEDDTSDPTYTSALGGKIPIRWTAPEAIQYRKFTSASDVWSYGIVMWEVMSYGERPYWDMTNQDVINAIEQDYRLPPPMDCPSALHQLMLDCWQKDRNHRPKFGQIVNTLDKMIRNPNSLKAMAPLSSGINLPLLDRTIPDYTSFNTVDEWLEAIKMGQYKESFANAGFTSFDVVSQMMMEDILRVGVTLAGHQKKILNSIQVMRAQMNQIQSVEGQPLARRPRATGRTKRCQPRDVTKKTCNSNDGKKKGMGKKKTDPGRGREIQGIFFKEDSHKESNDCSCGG

[4] = biological target: FGFR1 (UniProt P11362); assay: as above
FGFR1, sequence (P11362 whole entry, looked up): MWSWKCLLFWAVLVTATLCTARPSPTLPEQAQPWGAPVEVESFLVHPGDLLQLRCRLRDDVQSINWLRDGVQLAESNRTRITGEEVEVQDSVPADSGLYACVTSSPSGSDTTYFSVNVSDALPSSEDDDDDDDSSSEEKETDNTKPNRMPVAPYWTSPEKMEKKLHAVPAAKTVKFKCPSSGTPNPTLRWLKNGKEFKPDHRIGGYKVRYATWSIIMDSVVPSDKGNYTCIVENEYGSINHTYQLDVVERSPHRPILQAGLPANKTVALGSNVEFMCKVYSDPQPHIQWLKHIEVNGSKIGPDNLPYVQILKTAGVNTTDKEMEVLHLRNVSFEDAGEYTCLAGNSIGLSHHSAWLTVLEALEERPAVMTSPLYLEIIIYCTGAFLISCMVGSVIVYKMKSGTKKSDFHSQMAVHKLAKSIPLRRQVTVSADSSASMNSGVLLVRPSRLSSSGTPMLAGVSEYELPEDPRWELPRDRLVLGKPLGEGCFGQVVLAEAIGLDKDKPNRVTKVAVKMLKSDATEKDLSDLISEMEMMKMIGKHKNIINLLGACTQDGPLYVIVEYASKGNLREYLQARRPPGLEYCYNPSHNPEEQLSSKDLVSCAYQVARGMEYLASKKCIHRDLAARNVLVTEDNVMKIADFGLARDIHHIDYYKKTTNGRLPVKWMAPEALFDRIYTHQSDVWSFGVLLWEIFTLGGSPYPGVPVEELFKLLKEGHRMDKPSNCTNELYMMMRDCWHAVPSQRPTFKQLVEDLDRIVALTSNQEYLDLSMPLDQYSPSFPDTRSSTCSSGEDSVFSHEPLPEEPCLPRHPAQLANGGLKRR

[5] = biological target: FGFR3 (UniProt P22607); assay: as above
FGFR3, sequence (P22607 whole entry, looked up): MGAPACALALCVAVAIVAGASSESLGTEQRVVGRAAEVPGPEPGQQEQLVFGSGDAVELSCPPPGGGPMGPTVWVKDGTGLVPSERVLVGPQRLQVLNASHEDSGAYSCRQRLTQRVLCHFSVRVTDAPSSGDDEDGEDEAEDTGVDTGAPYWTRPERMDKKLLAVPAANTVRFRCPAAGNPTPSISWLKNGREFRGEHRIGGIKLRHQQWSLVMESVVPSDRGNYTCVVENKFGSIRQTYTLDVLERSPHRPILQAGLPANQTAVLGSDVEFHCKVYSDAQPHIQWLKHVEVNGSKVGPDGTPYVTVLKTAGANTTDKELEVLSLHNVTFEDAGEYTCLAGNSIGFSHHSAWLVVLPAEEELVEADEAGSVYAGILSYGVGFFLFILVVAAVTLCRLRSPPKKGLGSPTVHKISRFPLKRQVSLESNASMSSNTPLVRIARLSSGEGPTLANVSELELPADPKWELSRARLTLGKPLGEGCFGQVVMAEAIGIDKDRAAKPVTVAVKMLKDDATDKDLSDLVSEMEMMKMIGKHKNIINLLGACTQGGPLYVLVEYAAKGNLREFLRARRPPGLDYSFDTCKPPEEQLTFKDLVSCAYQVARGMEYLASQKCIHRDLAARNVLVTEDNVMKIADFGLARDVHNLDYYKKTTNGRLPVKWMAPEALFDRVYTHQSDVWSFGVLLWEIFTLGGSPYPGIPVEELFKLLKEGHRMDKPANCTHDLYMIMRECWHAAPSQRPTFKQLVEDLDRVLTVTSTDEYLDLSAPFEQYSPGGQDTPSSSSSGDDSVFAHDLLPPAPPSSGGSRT

[6] = tested on: Fer (mouse); assay: as above
[7] = biological target: Fes (UniProt P07332); assay: as above
Fes, sequence (P07332 whole entry, looked up): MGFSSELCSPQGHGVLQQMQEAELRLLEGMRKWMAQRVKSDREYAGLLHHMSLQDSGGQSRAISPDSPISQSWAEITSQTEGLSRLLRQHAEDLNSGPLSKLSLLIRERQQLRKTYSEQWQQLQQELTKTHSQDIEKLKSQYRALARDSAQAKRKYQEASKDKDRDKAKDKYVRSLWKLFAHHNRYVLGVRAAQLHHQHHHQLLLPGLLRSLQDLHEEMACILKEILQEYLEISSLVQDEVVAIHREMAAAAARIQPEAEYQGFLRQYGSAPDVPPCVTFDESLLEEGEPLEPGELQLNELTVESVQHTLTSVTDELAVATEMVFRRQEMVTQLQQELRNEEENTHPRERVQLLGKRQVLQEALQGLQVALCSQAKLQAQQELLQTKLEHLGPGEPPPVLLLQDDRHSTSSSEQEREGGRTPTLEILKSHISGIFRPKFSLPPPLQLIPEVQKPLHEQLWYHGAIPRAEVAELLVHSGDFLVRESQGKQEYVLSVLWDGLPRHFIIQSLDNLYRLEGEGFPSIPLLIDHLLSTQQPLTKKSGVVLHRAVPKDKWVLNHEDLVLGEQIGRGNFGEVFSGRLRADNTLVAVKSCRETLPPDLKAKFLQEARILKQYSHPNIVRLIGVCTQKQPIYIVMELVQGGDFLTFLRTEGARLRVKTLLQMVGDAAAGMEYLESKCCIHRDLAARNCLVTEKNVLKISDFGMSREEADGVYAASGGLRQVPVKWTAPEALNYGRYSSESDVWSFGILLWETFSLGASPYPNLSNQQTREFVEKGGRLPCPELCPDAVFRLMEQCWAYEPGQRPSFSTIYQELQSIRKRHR

[8] = biological target: Fyn (UniProt P06241); assay: as above
Fyn, sequence (P06241 whole entry, looked up): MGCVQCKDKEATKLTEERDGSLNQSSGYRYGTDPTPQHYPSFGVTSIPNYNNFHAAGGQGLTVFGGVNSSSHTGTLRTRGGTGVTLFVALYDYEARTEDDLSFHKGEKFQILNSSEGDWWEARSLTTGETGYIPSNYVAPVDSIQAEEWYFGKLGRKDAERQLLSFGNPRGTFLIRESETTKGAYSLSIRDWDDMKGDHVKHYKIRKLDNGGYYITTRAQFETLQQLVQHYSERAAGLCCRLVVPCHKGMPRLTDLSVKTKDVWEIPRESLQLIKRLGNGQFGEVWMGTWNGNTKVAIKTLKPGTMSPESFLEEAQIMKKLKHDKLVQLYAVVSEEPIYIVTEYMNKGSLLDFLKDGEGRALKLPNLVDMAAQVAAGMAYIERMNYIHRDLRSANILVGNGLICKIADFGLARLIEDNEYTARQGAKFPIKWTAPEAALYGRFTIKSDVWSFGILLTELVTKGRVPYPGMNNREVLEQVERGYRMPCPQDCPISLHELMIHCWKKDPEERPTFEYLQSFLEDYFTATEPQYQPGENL

[9] = biological target: Hck (UniProt P08631); assay: as above
Hck, sequence (P08631 whole entry, looked up): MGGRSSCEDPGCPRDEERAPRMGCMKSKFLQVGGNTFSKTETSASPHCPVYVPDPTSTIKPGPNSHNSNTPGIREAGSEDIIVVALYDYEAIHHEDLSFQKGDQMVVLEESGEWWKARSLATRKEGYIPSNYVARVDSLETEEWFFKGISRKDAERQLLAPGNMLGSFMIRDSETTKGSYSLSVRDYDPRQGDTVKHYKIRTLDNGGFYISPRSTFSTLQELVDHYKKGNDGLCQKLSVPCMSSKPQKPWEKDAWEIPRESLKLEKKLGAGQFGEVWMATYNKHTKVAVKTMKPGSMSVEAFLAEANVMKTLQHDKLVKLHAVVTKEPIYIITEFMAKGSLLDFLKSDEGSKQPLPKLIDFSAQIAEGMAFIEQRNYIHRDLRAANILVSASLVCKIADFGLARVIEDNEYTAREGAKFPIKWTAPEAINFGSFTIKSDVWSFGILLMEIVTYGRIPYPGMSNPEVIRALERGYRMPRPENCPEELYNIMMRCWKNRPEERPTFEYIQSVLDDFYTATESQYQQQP

[10] = biological target: Jak2 (UniProt O60674); assay: as above
[11] = biological target: MERTK (UniProt Q12866); assay: as above
[12] = tested on: c-Abl (mouse); assay: as above
[13] = tested on: c-Src; assay: as above
[14] = biological target: Grb2 SH2 (UniProt P62993); assay: SH2 binding enrichment of the phosphorylated peptide, bacterial display (enrichment ratio); higher = better substrate or ligand; peptides without Tyr show the background
Grb2 SH2, sequence (P62993 whole entry, looked up): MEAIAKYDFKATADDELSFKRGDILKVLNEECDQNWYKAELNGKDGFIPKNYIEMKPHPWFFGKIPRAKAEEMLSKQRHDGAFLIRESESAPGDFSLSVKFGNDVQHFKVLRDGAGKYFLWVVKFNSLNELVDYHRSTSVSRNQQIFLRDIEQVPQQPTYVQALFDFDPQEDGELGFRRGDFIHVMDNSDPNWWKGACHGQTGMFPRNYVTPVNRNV

[15] = biological target: SHP2-C SH2; assay: as above
[16] = biological target: c-Src SH2; assay: as above
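Wherever SH2 binding enrichment of the phosphorylated peptide, bacterial display is given: peptide library displayed on the E. coli surface as eCPX fusions, selected cells deep-sequenced, score is each peptide's frequency after selection divided by its frequency in the input.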
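Wherever phosphorylation enrichment, bacterial display is given: 11-residue human phosphosite peptides and single-mutation variants displayed on the E. coli surface, counted by deep sequencing, each peptide's frequency after selection divided by its frequency in the unselected input library; frequency after pTyr selection over input frequency; kinase dosed for 20-30% of maximal phosphorylation in three min.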

Sequence	phosphorylation enrichment [1]	phosphorylation enrichment [2]	phosphorylation enrichment [3]	phosphorylation enrichment [4]	phosphorylation enrichment [5]	phosphorylation enrichment [6]	phosphorylation enrichment [7]	phosphorylation enrichment [8]	phosphorylation enrichment [9]	phosphorylation enrichment [10]	phosphorylation enrichment [11]	phosphorylation enrichment [12]	phosphorylation enrichment [13]	SH2 binding enrichment [14]	SH2 binding enrichment [15]	SH2 binding enrichment [16]
LLIMEYAKFGS [RET_Y806_V804M_YF]	1.34	1.07	0.968	0.772	0.697	0.909	1.77	1.09	1.59	2.11	0.701	1.51	1.96	1.35	0.655	0.929
LLKKMYLMLDN [STAT1_Y203]	0.883	0.571	0.381	0.395	0.721	0.521	0.996	0.38	0.434	0.939	0.401	0.643	0.305	1.14	1.24	0.957
LLSVAYKNVVR [YWHAZ_Y48_G53R]	1.28	0.874	0.88	1.03	0.853	0.55	1.34	0.762	0.477	1.1	0.689	1.2	0.743	0.827	0.566	0.475
LLVVVYKFRCF [PSEN1_Y154_L153V_YF]	0.949	0.446	0.45	0.446	0.676	0.471	1.3	0.359	0.462	0.707	0.463	1.19	0.455	1.96	1.64	1.41
LMIEEYLTKEP [BAG3_Y457_L462P]	2.05	1.15	0.975	1.2	1.88	0.745	2.51	0.6	1.5	2.78	1.12	2.45	1.49	0.743	0.953	0.552
LNEQHYGGLTG [PGAM4_Y92_R90Q]	0.752	0.949	0.574	0.659	0.972	0.769	1.2	0.956	0.902	0.915	0.845	1.5	1.04	0.958	0.761	0.518
LNLKEYNLVGG [GNAQ_Y356]	1.23	0.307	0.411	0.357	0.698	0.685	0.867	0.529	0.485	0.793	0.424	0.709	0.561	0.783	0.844	1.17
LNPLIYSLRNK [OR5R1_Y290]	1.13	2.03	1.29	1.94	1.44	1.21	2.46	6.76	8.23	1.13	1.5	2.28	6.55	0.86	1.66	0.727
LSERGYSFVTT [ACTA2_Y200_T196S]	1.29	0.94	0.704	0.955	1.46	1.06	1.41	0.81	0.724	1.08	0.986	0.925	0.693	0.806	5.26	8.52
LSGFCYRLSDQ [PDCD6_Y124_G123C]	1.66	1.08	1.28	0.932	1.33	0.816	1.46	0.928	0.804	1.53	0.566	1.34	0.607	0.948	0.776	0.471
LTFHMYADPNI [SOS1_Y618_F623I_YF]	2.46	1.77	2.05	1.35	2.09	1.25	2.48	0.747	0.799	2.23	0.583	1.57	0.564	0.811	0.959	5.33
LVSCAYQVARG [FGFR1_Y605]	0.867	0.61	0.612	0.462	0.577	0.505	0.89	0.487	0.609	0.657	0.424	0.641	0.577	0.883	0.728	0.644
LVSCTYQLARR [FGFR2_Y608_G613R]	1.57	0.816	1.28	0.788	0.793	0.896	1.33	0.699	0.891	1.36	0.861	0.721	0.438	0.851	0.484	0.401
LWQSIYNLDAE [TNNT2_Y251_E254D]	1.38	0.883	1.18	0.658	0.784	0.513	1.2	9.69	6.38	0.981	0.497	0.706	6.55	0.771	0.639	0.456
MAFDRYVAICS [OR8D4_Y123_C120Y_YF]	1.15	0.905	0.762	0.463	0.726	0.563	1.14	0.515	0.665	1.07	0.507	0.78	0.489	0.724	0.64	1.08
MAPQMYEFHLP [NCAPD2_Y6]	0.795	4.23	3.16	0.443	0.719	19.6	0.766	0.506	0.624	0.592	5.35	0.473	0.655	0.656	0.582	0.411
